# How the values were obtained:
# [1] = target: LH1-RC complex of Rba. sphaeroides IL106 (wild type) (Rhodobacter sphaeroides f. sp. denitrificans strain IL106) (UniProt Q3J1A4); experiment: sucrose density gradient centrifugation; supernatant of chromatophores solubilised with 1.0% w/v DDM on a stepwise sucrose gradient (10-40% w/v), 20 mM Tris-HCl pH 8.0, 0.05% w/v DDM, 4 °C, 150,000 x g, 6 h; ratio from volumes and absorption of the dimeric and monomeric layers
# [2] = target: LH1-RC complex of the protein-U-deleted strain IL106-ΔU (Rhodobacter sphaeroides f. sp. denitrificans strain IL106) (UniProt Q3J1A4); experiment: as above
Substance,ratio of dimeric to monomeric LH1-RC [1],stoichiometry N [1],ratio of dimeric to monomeric LH1-RC [2],stoichiometry N [2]
LH1-RC complex of Rba. sphaeroides IL106 (wild type) (from UniProt Q3J1A4 1-58; Q3J1A3 1-49; P0C0Y8 1-282; P0C0Y9 1-308; P0C0Y7 1-260; P13402 1-82),0.44,2,–,–
LH1-RC complex of the protein-U-deleted strain IL106-ΔU (from UniProt Q3J1A4 1-58; Q3J1A3 1-49; P0C0Y8 1-282; P0C0Y9 1-308; P0C0Y7 1-260; P13402 1-82),–,–,0.15,2

# Source: publication PMC8564508
